Laboratory results taken from the supplement of paper PMC11316812.
± gives the standard deviation of the averaged measurements.

What was measured:
hTERT-HMEC = assay: percentage of EdU-negative (G0-arrested) nuclei per well, 72 h; higher = more G0 arrest; details: reference: sequence is the full UniProt precursor, the tested protein was the secreted form or ectodomain
MCF7 = assay: as above; details: reference: sequence is the full UniProt precursor, the tested protein was the secreted form or ectodomain
[1] = protein concentration 0.01975 µM
[2] = protein concentration 0.1975 µM
[3] = protein concentration 0.0225 µM
[4] = protein concentration 0.01325 µM
[5] = protein concentration 0.1325 µM
[6] = protein concentration 0.0155 µM
[7] = protein concentration 0.01025 µM
[8] = protein concentration 0.1025 µM
[9] = protein concentration 0.00975 µM
[10] = protein concentration 0.0975 µM
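Note: secreted proteins added to cultured cells, EdU pulse at the end, nuclei found by Hoechst imaging, EdU status from nuclear versus surrounding ring intensity ratio, PBS as neutral control.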

Row | Sequence | percentage of EdU-negative (hTERT-HMEC; [3]) [%] | percentage of EdU-negative (hTERT-HMEC; protein concentration 0.225 µM) [%] | percentage of EdU-negative (MCF7; [3]) [%] | percentage of EdU-negative (MCF7; protein concentration 0.225 µM) [%] | other results
1 | MTSSRLWFSLLLAAAFAGRATALWPWPQNFQTSDQRYVLYPNNFQFQYDVSSAAQPGCSVLDEAFQRYRDLLFGSGSWPRPYLTGKRHTLEKNVLVVSVVTPGCNQLPTLESVENYTLTINDDQCLLLSETVWGALRGLETFSQLVWKSAEGTFFINKTEIEDFPRFPHRGLLLDTSRHYLPLSSILDTLDVMAYNKLNVFHWHLVDDPSFPYESFTFPELMRKGSYNPVTHIYTAQDVKEVIEYARLRGIRVLAEFDTPGHTLSWGPGIPGLLTPCYSGSEPSGTFGPVNPSLNNTYEFMSTFFLEVSSVFPDFYLHLGGDEVDFTCWKSNPEIQDFMRKKGFGEDFKQLESFYIQTLLDIVSSYGKGYVVWQEVFDNKVKIQPDTIIQVWREDIPVNYMKELELVTKAGFRALLSAPWYLNRISYGPDWKDFYIVEPLAFEGTPEQKALVIGGEACMWGEYVDNTNLVPRLWPRAGAVAERLWSNKLTSDLTFAYERLSHFRCELLRRGVQAQPLNVGFCEQEFEQT | – | – | – | – | percentage of EdU-negative (hTERT-HMEC; [1]): 5.032 ± 0.0092%; percentage of EdU-negative (hTERT-HMEC; [2]): 20.1 ± 1.8%; percentage of EdU-negative (MCF7; [1]): 25.5 ± 0.27%; percentage of EdU-negative (MCF7; [2]): 26.4 ± 5.3%
2 | MTTQLPAYVAILLFYVSRASCQDTFTAAVYEHAAILPNATLTPVSREEALALMNRNLDILEGAITSAADQGAHIIVTPEDAIYGWNFNRDSLYPYLEDIPDPEVNWIPCNNRNRFGQTPVQERLSCLAKNNSIYVVANIGDKKPCDTSDPQCPPDGRYQYNTDVVFDSQGKLVARYHKQNLFMGENQFNVPKEPEIVTFNTTFGSFGIFTCFDILFHDPAVTLVKDFHVDTIVFPTAWMNVLPHLSAVEFHSAWAMGMRVNFLASNIHYPSKKMTGSGIYAPNSSRAFHYDMKTEEGKLLLSQLDSHPSHSAVVNWTSYASSIEALSSGNKEFKGTVFFDEFTFVKLTGVAGNYTVCQKDLCCHLSYKMSENIPNEVYALGAFDGLHTVEGRYYLQICTLLKCKTTNLNTCGDSAETASTRFEMFSLSGTFGTQYVFPEVLLSENQLAPGEFQVSTDGRLFSLKPTSGPVLTVTLFGRLYEKDWASNASSGLTAQARIIMLIVIAPIVCSLSW | 5.11 ± 0.53 | 4.83 ± 0.5 | 26.6 ± 0.41 | 26.3 ± 2.3 | –
3 | MTTQLRVVHLLPLLLACFVQTSPKQEKMKMDCHKDEKGTIYDYEAIALNKNEYVSFKQYVGKHILFVNVATYCGLTAQYPELNALQEELKPYGLVVLGFPCNQFGKQEPGDNKEILPGLKYVRPGGGFVPSFQLFEKGDVNGEKEQKVFSFLKHSCPHPSEILGTFKSISWDPVKVHDIRWNFEKFLVGPDGIPVMRWSHRATVSSVKTDILAYLKQFKTK | 5.29 ± 0.31 | 7.84 ± 0.53 | 26.1 ± 1.7 | 27.7 ± 0.58 | –
4 | MTTWSLRRRPARTLGLLLLVVLGFLVLRRLDWSTLVPLRLRHRQLGLQAKGWNFMLEDSTFWIFGGSIHYFRVPREYWRDRLLKMKACGLNTLTTYVPWNLHEPERGKFDFSGNLDLEAFVLMAAEIGLWVILRPGPYICSEMDLGGLPSWLLQDPGMRLRTTYKGFTEAVDLYFDHLMSRVVPLQYKRGGPIIAVQVENEYGSYNKDPAYMPYVKKALEDRGIVELLLTSDNKDGLSKGIVQGVLATINLQSTHELQLLTTFLFNVQGTQPKMVMEYWTGWFDSWGGPHNILDSSEVLKTVSAIVDAGSSINLYMFHGGTNFGFMNGAMHFHDYKSDVTSYDYDAVLTEAGDYTAKYMKLRDFFGSISGIPLPPPPDLLPKMPYEPLTPVLYLSLWDALKYLGEPIKSEKPINMENLPVNGGNGQSFGYILYETSITSSGILSGHVHDRGQVFVNTVSIGFLDYKTTKIAVPLIQGYTVLRILVENRGRVNYGENIDDQRKGLIGNLYLNDSPLKNFRIYSLDMKKSFFQRFGLDKWSSLPETPTLPAFFLGSLSISSTPCDTFLKLEGWEKGVVFINGQNLGRYWNIGPQKTLYLPGPWLSSGINQVIVFEETMAGPALQFTETPHLGRNQYIK [Q8IW92] | – | – | – | – | percentage of EdU-negative (hTERT-HMEC; [4]): 4.88 ± 0.97%; percentage of EdU-negative (hTERT-HMEC; [5]): 9.63 ± 0.41%; percentage of EdU-negative (MCF7; [4]): 23.6 ± 0.28%; percentage of EdU-negative (MCF7; [5]): 27.7 ± 0.33%
5 | MTVARPSVPAALPLLGELPRLLLLVLLCLPAVWGDCGLPPDVPNAQPALEGRTSFPEDTVITYKCEESFVKIPGEKDSVICLKGSQWSDIEEFCNRSCEVPTRLNSASLKQPYITQNYFPVGTVVEYECRPGYRREPSLSPKLTCLQNLKWSTAVEFCKKKSCPNPGEIRNGQIDVPGGILFGATISFSCNTGYKLFGSTSSFCLISGSSVQWSDPLPECREIYCPAPPQIDNGIIQGERDHYGYRQSVTYACNKGFTMIGEHSIYCTVNNDEGEWSGPPPECRGKSLTSKVPPTVQKPTTVNVPTTEVSPTSQKTTTKTTTPNAQATRSTPVSRTTKHFHETTPNKGSGTTSGTTRLLSGHTCFTLTGLLGTLVTMGLLT | – | – | – | – | percentage of EdU-negative (hTERT-HMEC; [6]): 4.51 ± 0.44%; percentage of EdU-negative (hTERT-HMEC; protein concentration 0.155 µM): 7.07 ± 0.42%; percentage of EdU-negative (MCF7; [6]): 26.2 ± 1%; percentage of EdU-negative (MCF7; protein concentration 0.155 µM): 26.1 ± 1.8%
6 | MTVFLSFAFLAAILTHIGCSNQRRSPENSGRRYNRIQHGQCAYTFILPEHDGNCRESTTDQYNTNALQRDAPHVEPDFSSQKLQHLEHVMENYTQWLQKLENYIVENMKSEMAQIQQNAVQNHTATMLEIGTSLLSQTAEQTRKLTDVETQVLNQTSRLEIQLLENSLSTYKLEKQLLQQTNEILKIHEKNSLLEHKILEMEGKHKEELDTLKEEKENLQGLVTRQTYIIQELEKQLNRATTNNSVLQKQQLELMDTVHNLVNLCTKEGVLLKGGKREEEKPFRDCADVYQAGFNKSGIYTIYINNMPEPKKVFCNMDVNGGGWTVIQHREDGSLDFQRGWKEYKMGFGNPSGEYWLGNEFIFAITSQRQYMLRIELMDWEGNRAYSQYDRFHIGNEKQNYRLYLKGHTGTAGKQSSLILHGADFSTKDADNDNCMCKCALMLTGGWWFDACGPSNLNGMFYTAGQNHGKLNGIKWHYFKGPSYSLRSTTMMIRPLDF | – | – | – | – | percentage of EdU-negative (hTERT-HMEC; [7]): 4.915 ± 0.017%; percentage of EdU-negative (hTERT-HMEC; [8]): 8.6 ± 2%; percentage of EdU-negative (MCF7; [7]): 25.2 ± 0.66%; percentage of EdU-negative (MCF7; [8]): 26.4 ± 0.81%
7 | MTVLAPAWSPTTYLLLLLLLSSGLSGTQDCSFQHSPISSDFAVKIRELSDYLLQDYPVTVASNLQDEELCGGLWRLVLAQRWMERLKTVAGSKMQGLLERVNTEIHFVTKCAFQPPPSCLRFVQTNISRLLQETSEQLVALKPWITRQNFSRCLELQCQPDSSTLPPPWSPRPLEATAPTAPQPPLLLLLLLPVGLLLLAAAWCLHWQRTRRRTPRPGEQVPPVPSPQDLLLVEH | 5 ± 0.57 | 5.47 ± 0.61 | 25 ± 0.85 | 25.7 ± 0.9 | –
8 | MVAALLGGGGEARGGTVPGAWLCLMALLQLLGSAPRGSGLAHGRRLICWQALLQCQGEPECSYAYNQYAEACAPVLAQHGGGDAPGAAAAAFPASAASFSSRWRCPSHCISALIQLNHTRRGPALEDCDCAQDENCKSTKRAIEPCLPRTSGGGAGGPGAGGVMGCTEARRRCDRDSRCNLALSRYLTYCGKVFNGLRCTDECRTVIEDMLAMPKAALLNDCVCDGLERPICESVKENMARLCFGAELGNGPGSSGSDGGLDDYYDEDYDDEQRTGGAGGEQPLDDDDGVPHPPRPGSGAAASGGRGDLPYGPGRRSSGGGGRLAPRGAWTPLASILLLLLGPLF | 4.96 ± 0.62 | 5.68 ± 0.97 | 24.6 ± 0.7 | 26.9 ± 0.34 | –
9 | MVAATVAAAWLLLWAAACAQQEQDFYDFKAVNIRGKLVSLEKYRGSVSLVVNVASECGFTDQHYRALQQLQRDLGPHHFNVLAFPCNQFGQQEPDSNKEIESFARRTYSVSFPMFSKIAVTGTGAHPAFKYLAQTSGKEPTWNFWKYLVAPDGKVVGAWDPTVSVEEVRPQITALVRKLILLKREDL [Q96SL4] | – | – | – | – | percentage of EdU-negative (hTERT-HMEC; [9]): 4.59 ± 0.052%; percentage of EdU-negative (hTERT-HMEC; [10]): 5.66 ± 0.28%; percentage of EdU-negative (MCF7; [9]): 25.2 ± 2%; percentage of EdU-negative (MCF7; [10]): 27.1 ± 1.4%
10 | MVAGSDAGRALGVLSVVCLLHCFGFISCFSQQIYGVVYGNVTFHVPSNVPLKEVLWKKQKDKVAELENSEFRAFSSFKNRVYLDTVSGSLTIYNLTSSDEDEYEMESPNITDTMKFFLYVLESLPSPTLTCALTNGSIEVQCMIPEHYNSHRGLIMYSWDCPMEQCKRNSTSIYFKMENDLPQKIQCTLSNPLFNTTSSIILTTCIPSSGHSRHRYALIPIPLAVITTCIVLYMNGILKCDRKPDRTNSN | 5.39 ± 0.14 | 5.59 ± 0.33 | 27.3 ± 0.7 | 26.7 ± 1.6 | –
11 | MVAPGLVLGLVLPLILWADRSAGIGFRFASYINNDMVLQKEPAGAVIWGFGTPGATVTVTLRQGQETIMKKVTSVKAHSDTWMVVLDPMKPGGPFEVMAQQTLEKINFTLRVHDVLFGDVWLCSGQSNMQMTVLQIFNATRELSNTAAYQSVRILSVSPIQAEQELEDLVAVDLQWSKPTSENLGHGYFKYMSAVCWLFGRHLYDTLQYPIGLIASSWGGTPIEAWSSGRSLKACGVPKQGSIPYDSVTGPSKHSVLWNAMIHPLCNMTLKGVVWYQGESNINYNTDLYNCTFPALIEDWRETFHRGSQGQTERFFPFGLVQLSSDLSKKSSDDGFPQIRWHQTADFGYVPNPKMPNTFMAVAMDLCDRDSPFGSIHPRDKQTVAYRLHLGARALAYGEKNLTFEGPLPEKIELLAHKGLLNLTYYQQIQVQKKDNKIFEISCCSDHRCKWLPASMNTVSTQSLTLAIDSCHGTVVALRYAWTTWPCEYKQCPLYHPSSALPAPPFIAFITDQGPGHQSNVAK [Q9HAT2] | 5.13 ± 1 | 7.82 ± 1.7 | 24.9 ± 0.68 | 24.8 ± 0.63 | –
12 | MVAPKSHTDDWAPGPFSSKPQRSQLQIFSSVLQTSLLFLLMGLRASGKDSAPTVVSGILGGSVTLPLNISVDTEIENVIWIGPKNALAFARPKENVTIMVKSYLGRLDITKWSYSLCISNLTLNDAGSYKAQINQRNFEVTTEEEFTLFVYEQLQEPQVTMKSVKVSENFSCNITLMCSVKGAEKSVLYSWTPREPHASESNGGSILTVSRTPCDPDLPYICTAQNPVSQRSSLPVHVGQFCTDPGASRGGTTGETVVGVLGEPVTLPLALPACRDTEKVVWLFNTSIISKEREEAATADPLIKSRDPYKNRVWVSSQDCSLKISQLKIEDAGPYHAYVCSEASSVTSMTHVTLLIYRRLRKPKITWSLRHSEDGICRISLTCSVEDGGNTVMYTWTPLQKEAVVSQGESHLNVSWRSSENHPNLTCTASNPVSRSSHQFLSENICSGPERNTKLWIGLFLMVCLLCVGIFSWCIWKRKGRCSVPAFCSSQAEAPADTPEPTAGHTLYSVLSQGYEKLDTPLRPARQQPTPTSDSSSDSNLTTEEDEDRPEVHKPISGRYEVFDQVTQEGAGHDPAPEGQADYDPVTPYVTEVESVVGENTMYAQVFNLQGKTPVSQKEESSATIYCSIRKPQVVPPPQQNDLEIPESPTYENFT [Q9HBG7] | – | – | – | – | percentage of EdU-negative (hTERT-HMEC; protein concentration 0.02 µM): 4.82 ± 0.27%; percentage of EdU-negative (hTERT-HMEC; protein concentration 0.2 µM): 7.12 ± 0.12%; percentage of EdU-negative (MCF7; protein concentration 0.02 µM): 25.2 ± 0.84%; percentage of EdU-negative (MCF7; protein concentration 0.2 µM): 29.3 ± 0.77%
13 | MVATKTFALLLLSLFLAVGLGEKKEGHFSALPSLPVGSHAKVSSPQPRGPRYAEGTFISDYSIAMDKIHQQDFVNWLLAQKGKKNDWKHNITQREARALELASQANRKEEEAVEPQSSPAKNPSDEDLLRDLLIQELLACLLDQTNLCRLRSR | 4.89 ± 0.063 | 6.12 ± 0.68 | 26.1 ± 1.5 | 24.3 ± 2.4 | –
